These results are taken from PMC8847413 (Nature Communications, 2022).

The target in the assay is T1, recombinant RBD protein derived from the SARS-CoV-2 WT strain (SARS-CoV-2 wild type (Wuhan-Hu-1), UniProt P0DTC2).
T1 construct: also called WT-RBD; WT RBD
Put plainly: ELISA. The settings on record: both partners purified. (In general: An ELISA detects its analyte on a solid surface through an enzyme-linked reagent.)

B1: MAb 8D3 (IgG) (antibody, V domains shown)
VH: EVQLQQSGPELVKPGASVKISCKTSGYTFTEYTMYWVKQSHGKSLEWIGGINPNIGDTSYNQNFKGKATLTVDRSSSTAYMELRSLTSEDSAVYYCARDGYPYYYALDHWGQGTSVTVSS
VL: DIVMTQSQKFMSTSVGDRVSVTCKASQNVGTNVAWYQQKPGQSPKALIYSTSYRYSGVPDRFTGSGSGTDFTLTISNVQSEDLAEYFCQQYNSYPYTFGGGTKLEIK
notes: copies: 2 + 2
With B1, the binding result is given as “binds”.

B2: MAb 2H2 (antibody, V domains shown)
VH: QVQLKQSGPSLVQPSQSLSITCTVSGFSLTSYGVHWVRQSPGKGLEWLGVMWRGGNTDYNAAFMSRLSITKDNSKSQVFFKMNSLQTDDTAIYYCAKNGGAHAMDFWGQGTSVTVSS
VL: NIVLTQSPASLAVSLGQRATISCRASESVDSYGNSFLHWYQQKPGQPPKLLIYLASNLESGVPARFSGSGSRTDFTLTIDPVEADDAATYYCQQNNEDPFTFGSGTKLEIK
notes: copies: 2 + 2
As for B2, the binding result is “binds”.

B3: MAb 3C1 (antibody, V domains shown)
VH: EVQLQESGPSLVKPSQTLSLTCSVTGDSITNGYWNWIRKFPGNKLEYMGYISYSGSTYYSPSLKSRISITRDTSKNQHYLQLNSVTSEDTATYYCASDYHGSKYYFDYWGQGTTLTVSS
VL: DIVMTQSHKFMSTSVGHRVSITCKASQDVGNDVAWYQQKPGQSPKLLIYWASTRHTGVPDRFTGSGSGTDFTLTISNVQSEDLADYFCQQYNRYPYTFGGGTKLEIK
notes: copies: 2 + 2
For the molecule B3, the binding result is listed as “binds”.
